Laboratory results taken from patent US9371393B2, “Class I anti-CEA antibodies and uses thereof” (Immunomedics, Inc., priority 2009, dated 2016).
One block for each molecule: values may come before it.

Assays:
[1] = tested on: LS174T cells; assay: Spontaneous migration (wound-healing) assay, LS174T; assay type: cell-based, human; design: dose or concentration left out as unconfirmed; details: antibody, 18 to 24 hours, untreated 38.8±10.9
Description: (§1) Spontaneous migration assay—Glass coverslips were placed in 100×15 mm Petri dishes and UV sterilized overnight. Suspensions of cancer cells (2-4×10^5 cells/mol) were prepared from 80% to 90% confluent monolayers. Cells were plated on each coverslip and incubated for 2 to 5 days to reach 70% to 80% confluence. Two diagonal cell-free paths (“wounds”) were created by dragging a sterile yellow pipette tip across the surface. Monolayers were rinsed several times to remove floating cells and 4 mol of fresh medium were added back in the absence or presence of antibody IgG or Fab′ (10 μg/mol) and incubated at 37° C. After 18 to 24 hours, the medium was removed and coverslips stained with 1 mol Wright-Giemsa for 1 minute. The stain was washed off with distilled water, air-dried, and mounted onto slides with Cytoseal 60. Repopulation of the wound space was evaluated by counting the number of cells that migrated into the wound area in 10 representative fields. Regions of migration were photographed for documentation.

[2] = target: T1, NCA-90 (HeLa-KNC6/S44) (Homo sapiens, UniProt P40199); assay: Indirect flow cytometry, HeLa-KNC6/S44; assay type: binding; details: antibodies at 1/50 dilution of 1 mg/ml stocks
T1 construct: expressed in transfected cells; host or cells: HeLa (HeLa-KNC6/S44)
T1 sequence (P40199 35-320): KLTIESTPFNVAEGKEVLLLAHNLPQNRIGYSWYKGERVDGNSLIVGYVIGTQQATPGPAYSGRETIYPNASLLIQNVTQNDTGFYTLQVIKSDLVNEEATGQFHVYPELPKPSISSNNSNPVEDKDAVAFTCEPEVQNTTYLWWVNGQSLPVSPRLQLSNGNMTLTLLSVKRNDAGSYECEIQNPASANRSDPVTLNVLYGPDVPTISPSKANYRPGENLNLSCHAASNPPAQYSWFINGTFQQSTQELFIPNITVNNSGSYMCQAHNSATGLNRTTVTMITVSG
Description: The reactivity of antibodies was tested by flow cytometry with a Becton-Dickinson FACSCAN®. The biotinylated second antibody was directed against mouse IgG and was detected by a streptavidin/phycoerythrin conjugate. Tests were carried out with antibodies at 1/50 dilution of 1 mg/ml stocks.
The antibodies MN-3 and MN-15 were tested for recognition of HeLa cells transfected with cDNA coding for CEA (HeLa-CEA2), NCA-90 (HeLa-KNC6/S44) and NCA-95 (HeLa-CGM6/1). As a negative control, HeLa cells transfected with the plasmid pSV2-Neo (control HeLa cells, HeLa-NeoA) were used. In addition to the antibodies MN-3 and MN-15, three control antibodies were included: […]

[3] = tested on: MDA-231 cells; assay: Collagen-based invasion assay, MDA-231; assay type: cell-based, human; details: MDA-231, expresses neither antigen
Description: Collagen-based invasion assay—The assay was done using CHEMICON® Kit (#ECM551, MILLIPORE®, Billerica, Mass.). Tumor cells at 80% confluence and were serum-starved for 18 to 24 hours before the assay was used. Cells were harvested with 5 mol of 2 mmol/L EDTA/PBS per 100-mm dish and incubated at 37° C. for 5 to 15 minutes. Cells were collected into 10 to 20 mol of quenching medium (serum-free DMEM containing 5% BSA) to inactivate trypsin/EDTA from the harvesting buffer. Cells were pelleted, resuspended in quenching medium (1×10^6 cells/mol), and appropriate antibody Fabs were added to individual cell aliquots. Cell invasion potential was determined as follows. Baseline invasion and invasion in the presence of a chemoattractant (10% FBS) were measured after a 72-hour incubation period at 37° C. in a 5% CO2 incubator. The bottom side of the collagen-coated polycarbonate membrane insert of the invasion chamber was placed in 400 μL of cell stain for 20 minutes at room temperature and washed. The dye was extracted and transferred into a 96-well microtiter plate for colorimetric measurements (A560 nm).

[4] = tested on: HT-29 cells; assay: Spontaneous migration (wound-healing) assay, HT-29; assay type: cell-based, human; design: dose or concentration left out as unconfirmed; details: antibody, 18 to 24 hours, untreated 14.9±9.1, n=10
Description: as §1

[5] = target: T2, CEA (Homo sapiens, UniProt P06731); assay: Competitive CEA binding against HRP-labeled murine MN-15; details: competition with HRP-labeled murine MN-15
T2 sequence (P06731 35-676): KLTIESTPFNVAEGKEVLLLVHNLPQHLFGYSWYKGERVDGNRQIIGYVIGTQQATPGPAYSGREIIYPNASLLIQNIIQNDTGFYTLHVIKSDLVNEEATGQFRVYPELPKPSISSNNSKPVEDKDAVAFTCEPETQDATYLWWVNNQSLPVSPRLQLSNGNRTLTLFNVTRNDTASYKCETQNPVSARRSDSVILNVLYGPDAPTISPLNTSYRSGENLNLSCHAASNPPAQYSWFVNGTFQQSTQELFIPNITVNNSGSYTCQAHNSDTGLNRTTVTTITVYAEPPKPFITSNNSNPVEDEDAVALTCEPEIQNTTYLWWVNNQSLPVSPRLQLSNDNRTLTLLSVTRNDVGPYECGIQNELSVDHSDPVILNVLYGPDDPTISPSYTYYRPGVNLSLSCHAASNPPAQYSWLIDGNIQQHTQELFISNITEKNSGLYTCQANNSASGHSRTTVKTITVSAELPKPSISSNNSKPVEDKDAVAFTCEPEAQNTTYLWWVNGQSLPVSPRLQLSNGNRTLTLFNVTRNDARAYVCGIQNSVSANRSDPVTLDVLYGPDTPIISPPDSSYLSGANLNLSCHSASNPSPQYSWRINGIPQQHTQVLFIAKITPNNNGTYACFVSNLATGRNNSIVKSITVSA
Description: To make a chimeric MN-15 antibody, the murine MN-15 variable region sequences were attached to human IgG1 constant region sequences, as described in Leung et al., Hybridoma 13:469 (1994). The sequences of the murine MN-15 VK (SEQ ID NO:9) and MN-15 VH (SEQ ID NO:10) used to construct the chimeric MN-15 (cMN-15) are shown in FIG. 2 and FIG. 3.

binding to NCA-90 [2]: binds to all three antigens
dissociation constant [5]: nanomolar range
B1: MN-15: murine Class I anti-CEA MAb, IgG1 kappa, binds A1B1 domain of CEACAM5 and CEACAM6 (antibody, V domains shown)
VL: DIQLTQSPAIMSASPGEKVTMTCSASSRVSYIHWYQQKSGTSPKRWIYGTSTLASGVPARFSGSGSGTSYSLTISSMEAEDAATYYCQQWSYNPPTFGAGTKLELKR
VH: EVRLVESGGGLVQGPGSLRLSCAASGFALTDYYMSWVRQSPGKTLEWLGFIANKANGHTTDYSPSVKGRFTISRDNSQTILYLQMNTLRTEDSATYYCARDMGIRWNFDVWGQGTTVTVSS
migrating cells per field [1]: 20.3±0.1 cells
effect on invasion [3]: not reduced
number of migrating cells per field [4]: 5.5±1.8 cells

B2: MN-15 Fab′: monovalent Fab′ fragment of murine MN-15 (antibody, V domains shown)
VL: B1 VL
VH: B1 VH
migrating cells per field [1]: 21.6±1.2 cells
effect on invasion [3]: not reduced
number of migrating cells per field [4]: 5.4±0.8 cells
